Laboratory results as given in patent US20220341931A1.

Tests used:
[1] = biological target: Varicella-Zoster Virus Heterodimer gE/gI (HEK293), His-tag (Native Antigen Company #REC31907-100), a (Varicella-Zoster Virus) (UniProt P09259)
[2] = biological target: Influenza B [B/Washington/02/2019 (B/Victoria lineage)-like virus] Hemagglutinin (HA), His-Tag (Nati (Influenza B [B/Washington/02/2019 (B/Victoria lineage)-like virus]))
[3] = biological target: SARS-CoV-2 (2019-nCoV) Spike S1-His Recombinant Protein (Sino Biological Cat: 40591-VO8H), as barcode-linked antigen (SARS-CoV-2 (2019-nCoV)) (UniProt P0DTC2)
[4] = biological target: Epstein-Barr virus (Herpesvirus 4) EBV Glycoprotein gp350/EBV GP350 Protein (His Tag) (Sino Biologic (Epstein-Barr virus (Herpesvirus 4)) (UniProt P03200))
Chain of UniProt P03200 (P03200 1-470): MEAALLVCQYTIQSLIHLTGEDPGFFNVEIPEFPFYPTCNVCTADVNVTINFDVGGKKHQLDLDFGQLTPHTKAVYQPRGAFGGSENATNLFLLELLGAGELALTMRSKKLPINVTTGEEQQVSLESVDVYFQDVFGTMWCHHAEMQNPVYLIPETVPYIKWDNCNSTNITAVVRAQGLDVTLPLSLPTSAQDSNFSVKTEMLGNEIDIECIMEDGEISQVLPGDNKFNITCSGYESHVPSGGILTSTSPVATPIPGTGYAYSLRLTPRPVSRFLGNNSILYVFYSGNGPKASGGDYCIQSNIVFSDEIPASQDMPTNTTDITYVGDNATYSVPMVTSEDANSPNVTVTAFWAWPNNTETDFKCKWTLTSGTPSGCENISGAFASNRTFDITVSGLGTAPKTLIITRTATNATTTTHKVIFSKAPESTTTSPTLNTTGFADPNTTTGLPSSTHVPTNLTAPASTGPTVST

[5] = biological target: Human Metapneumovirus (hMPV) B Glycoprotein G, His-Tag (HEK293) (Native Antigen Company #REC31948-10 (Human Metapneumovirus (hMPV) B))
[6] = biological target: Human cytomegalovirus (HCMV) Glycoprotein B/gB Protein (His Tag) (Sino Biological 10202-V08H1), as b (Human cytomegalovirus (HCMV))
[7] = biological target: SARS-CoV-2 (2019-nCoV) Spike S1-His Recombinant Protein (Sino Biological Cat: 40591-VO8H), as barcode-linked antigen (SARS-CoV-2 (2019-nCoV)) (UniProt P0DTC2); remark: listed apart in the source

Chain of UniProt P09259 (P09259 31-538 limits assumed, chain 1 of 2): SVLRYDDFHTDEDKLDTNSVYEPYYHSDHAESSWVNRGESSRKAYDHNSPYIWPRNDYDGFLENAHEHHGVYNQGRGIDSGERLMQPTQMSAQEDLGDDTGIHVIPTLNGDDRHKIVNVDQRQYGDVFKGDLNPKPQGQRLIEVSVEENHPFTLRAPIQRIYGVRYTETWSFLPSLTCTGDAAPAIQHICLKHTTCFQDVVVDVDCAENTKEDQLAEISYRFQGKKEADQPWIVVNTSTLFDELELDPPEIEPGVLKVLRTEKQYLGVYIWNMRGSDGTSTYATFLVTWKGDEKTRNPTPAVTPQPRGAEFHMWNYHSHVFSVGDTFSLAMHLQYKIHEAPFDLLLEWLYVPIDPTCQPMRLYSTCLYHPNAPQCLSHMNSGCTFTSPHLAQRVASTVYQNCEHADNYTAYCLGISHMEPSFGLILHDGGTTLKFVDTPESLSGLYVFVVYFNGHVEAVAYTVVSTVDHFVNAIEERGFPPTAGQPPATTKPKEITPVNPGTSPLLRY
Chain of UniProt P09259 (P09258 18-295 limits assumed, chain 2 of 2, further chain): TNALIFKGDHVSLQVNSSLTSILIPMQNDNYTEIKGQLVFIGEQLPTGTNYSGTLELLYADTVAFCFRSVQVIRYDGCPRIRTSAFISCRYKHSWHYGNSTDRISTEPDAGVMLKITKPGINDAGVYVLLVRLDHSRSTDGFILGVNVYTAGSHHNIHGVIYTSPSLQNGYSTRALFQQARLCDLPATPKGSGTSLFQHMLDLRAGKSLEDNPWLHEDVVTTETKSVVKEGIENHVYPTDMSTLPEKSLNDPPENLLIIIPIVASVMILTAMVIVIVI

Substance “SARS-CoV-2 (2019-nCoV) Nucleocapsid Antibody, Rabbit MAb (Sino Biological Cat: 40143-R019)” has a barcode sequence counts (VZV) [1] of 200 counts, a barcode sequence counts (FLU B) [2] of 185 counts and a barcode sequence counts (COVID Spike) [3] of 900 counts. The barcode sequence counts (EBV) [4] was 1080 counts, the barcode sequence counts (hMPV) [5] was 201 counts and the barcode sequence counts (HCMV) [6] was 836 counts. It also gave a Spike #/Nuc # [7] of 0.291.
